The chains are these.
B3: BMP10 (ligand, UniProt O95393 317-424, looked up)
chain: NAKGNYCKRTPLYIDFKEIGWDSWIIAPPGYEAYECRGVCNYPLAEHLTPTKHAIIQALVHLKNSQKASKACCVPTKLEPISILYLDKGVVTYKFKYEGMAVSECGCR

In assay [1] the target is T1, activin A (UniProt P08476 311-426).
T1 construct: The same holds for m2-m11
T1 sequence (looked up): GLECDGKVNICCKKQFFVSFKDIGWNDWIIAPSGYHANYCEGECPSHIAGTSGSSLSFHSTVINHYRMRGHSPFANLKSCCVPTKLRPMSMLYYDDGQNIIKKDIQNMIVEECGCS
Briefly: SPR (Biacore), anti-Fc capture of receptor. How it is done: (§1) A Biacore™-based binding assay was used to compare ligand binding selectivity of the ActRIIB-Fc:ALK4-Fc heterodimeric complex described above with that of ActRIIB-Fc and ALK4-Fc homodimer complexes. The ActRIIB-Fc:ALK4-Fc heterodimer, ActRIIB-Fc homodimer, and ALK4-Fc homodimer were independently captured onto the system using an anti-Fc antibody. Ligands were injected and allowed to flow over the captured receptor protein. Results are summarized in the table below, in which ligand off-rates (kd) most indicative of effective ligand traps are denoted in bold.
For orientation: In SPR one partner is held on a chip, and binding of the other changes the refractive index at the surface.

Assay [2] addresses T2, activin B (UniProt P09529 293-407).
T2 sequence (looked up): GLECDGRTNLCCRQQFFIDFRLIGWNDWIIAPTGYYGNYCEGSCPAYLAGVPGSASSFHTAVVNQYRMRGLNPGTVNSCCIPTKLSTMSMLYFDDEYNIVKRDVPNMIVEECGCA
Briefly: SPR (Biacore), anti-Fc capture of receptor. How it is done: as §1

Assay [3] addresses T1, activin A. Nature of the assay: SPR (Biacore), anti-Fc capture of receptor. The method, then: (§2) A Biacore™-based binding assay was used to compare ligand binding selectivity of the ActRIIB-Fc:ALK7-Fc heterodimeric complex described above with that of ActRIIB-Fc and ALK7-Fc homodimeric complexes. The ActRIIB-Fc:ALK7-Fc heterodimer, ActRIIB-Fc homodimer, and ALK7-Fc homodimer were independently captured onto the system using an anti-Fc antibody. Ligands were injected and allowed to flow over the captured receptor protein. Results are summarized in the table below, in which ligand off-rates (kd) most indicative of effective ligand traps are denoted by in bold.
The source holds these as a separate data set.

A further assay has as its target T3, BMP9 (UniProt Q9UK05 320-429).
T3 construct: also called GDF2
T3 sequence (looked up): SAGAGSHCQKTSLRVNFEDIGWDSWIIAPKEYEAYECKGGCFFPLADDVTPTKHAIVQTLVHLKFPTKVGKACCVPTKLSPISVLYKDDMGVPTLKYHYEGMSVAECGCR
Nature of the assay: SPR (Biacore), anti-Fc capture of receptor. How it is done: as §2

The target of the assay “BMP10” is B3. Briefly: SPR (Biacore), anti-Fc capture of receptor. The method, then: as §2
The target in assay [4] is T2, activin B. Nature of the assay: SPR (Biacore), anti-Fc capture of receptor. How it is done: as §2
This is another data set of the same source.

For another assay, the target named is T4, activin C (UniProt P55103 237-352).
T4 sequence (looked up): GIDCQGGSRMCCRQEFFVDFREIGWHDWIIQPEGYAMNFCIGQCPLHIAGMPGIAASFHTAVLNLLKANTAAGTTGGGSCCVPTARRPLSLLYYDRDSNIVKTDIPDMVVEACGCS
Nature of the assay: SPR (Biacore), anti-Fc capture of receptor. How it is done:
as §2

The target in another assay is T5, activin AC (UniProt P08476 311-426; P55103 237-352).
T5 sequence (looked up) 1: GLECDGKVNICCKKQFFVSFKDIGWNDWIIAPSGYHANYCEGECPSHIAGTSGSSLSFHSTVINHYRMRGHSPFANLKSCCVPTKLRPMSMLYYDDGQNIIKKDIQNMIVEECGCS
T5 sequence (looked up) 2: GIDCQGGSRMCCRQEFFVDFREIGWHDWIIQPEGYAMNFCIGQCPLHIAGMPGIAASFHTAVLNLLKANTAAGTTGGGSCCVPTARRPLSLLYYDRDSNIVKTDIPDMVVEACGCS
Briefly: SPR (Biacore), anti-Fc capture of receptor. How it is done:
as §2

The next assay deals with T6, GDF3 (UniProt Q9NR23 251-364).
T6 sequence (looked up): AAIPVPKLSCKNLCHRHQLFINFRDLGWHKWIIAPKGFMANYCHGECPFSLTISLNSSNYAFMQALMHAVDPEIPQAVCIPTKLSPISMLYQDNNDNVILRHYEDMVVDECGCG
Briefly: SPR (Biacore), anti-Fc capture of receptor. The method, then: as §2

The next assay addresses T7, GDF8 (UniProt O14793 267-375).
T7 construct: also called myostatin
T7 sequence (looked up): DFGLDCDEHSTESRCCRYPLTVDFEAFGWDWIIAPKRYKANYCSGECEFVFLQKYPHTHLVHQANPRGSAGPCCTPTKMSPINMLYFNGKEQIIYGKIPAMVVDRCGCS
Nature of the assay: SPR (Biacore), anti-Fc capture of receptor. The method, then:
as §2

For the next assay, the target named is T8, GDF11 (UniProt O95390 299-407).
T8 construct: also called BMP11
T8 sequence (looked up): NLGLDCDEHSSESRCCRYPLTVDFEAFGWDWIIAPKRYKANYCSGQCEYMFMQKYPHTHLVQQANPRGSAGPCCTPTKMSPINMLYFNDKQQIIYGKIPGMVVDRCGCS
Briefly: SPR (Biacore), anti-Fc capture of receptor. How it is done:
as §2

For another assay, the target named is T9, BMP5 (UniProt P22003 317-454, limits assumed).
T9 sequence (looked up): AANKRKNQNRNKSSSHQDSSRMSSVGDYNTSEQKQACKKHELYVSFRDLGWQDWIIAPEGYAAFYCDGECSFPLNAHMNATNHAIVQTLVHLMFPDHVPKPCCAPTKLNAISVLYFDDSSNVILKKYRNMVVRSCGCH
Nature of the assay: SPR (Biacore), anti-Fc capture of receptor. The method, then:
as §2

Another assay has as its target T10, BMP6 (UniProt P22004 382-513, limits assumed).
T10 sequence (looked up): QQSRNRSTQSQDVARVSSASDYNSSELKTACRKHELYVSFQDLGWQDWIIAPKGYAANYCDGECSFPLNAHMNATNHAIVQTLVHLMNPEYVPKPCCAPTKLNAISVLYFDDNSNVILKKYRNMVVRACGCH
Briefly: SPR (Biacore), anti-Fc capture of receptor. How it is done: as §2

The next assay concerns the target T11, ActRIIA-mFc (human, UniProt P27037 21-135).
T11 construct: not shown: minimal linker and mouse Fc domain
Nature of the assay: similar binding assay (SPR). How it is done:
GDF11 or activin A were immobilized on a Biacore™ CM5 chip using standard amine-coupling procedure. ActRIIA-hFc and ActRIIA-mFc proteins were loaded onto the system, and binding was measured. […] See FIG. 15A-B. Using a similar binding assay, ActRIIA-hFc was determined to have high to moderate affinity for other TGF-beta superfamily ligands including, for example, activin B, GDF8, BMP6, and BMP10. ActRIIA-mFc behaved similarly.

Like-named read-outs stand apart in the source and are kept apart here.

The text below walks through data of US20240252628A1 (ACCELERON PHARMA, published 2024).

T11 sequence (P27037 21-135): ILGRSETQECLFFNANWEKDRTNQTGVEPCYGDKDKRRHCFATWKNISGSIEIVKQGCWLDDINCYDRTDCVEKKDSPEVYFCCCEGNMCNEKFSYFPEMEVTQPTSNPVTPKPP

B1: ALK4-Fc homodimer (Fc fusion, not shown: a dimerising Fc or GST)
chain: SGPRGVQALLCACTSCLQANYTCETDGACMVSIFNLDGMEHHVRTCIPKVELVPAGKPFYCLSSEDLRNTHCCYTDYCNRIDLRVPSGHLKEPEHPSMWGPVE
For orientation: Kd means the constant that tells how readily two partners part at equilibrium. Low values mean tighter binding, high ones weaker binding. A word on the koff: it is the first-order rate constant of dissociation. Lower therefore signals a long-lived complex. In general, kon refers to the rate constant with which the complex forms. A lower kon goes with slow association. In the assay with activin A [1], B1 had a Kd of 20 nM, a koff of 0.012 s⁻¹ and a kon of 580000 M⁻¹ s⁻¹. Further, in the assay with activin B [2], the binding result is “no binding”.

B2: ActRIIB-Fc:ALK7-Fc heterodimer (Fc fusion)
chain 1: GRGEAETRECIYYNANWELERTNQSGLERCEGEQDKRLHCYASWRNSSGTIELVKKGCWLDDFNCYDRQECVATEENPQVYFCCCEGNFCNERFTHLPEAGGPEVTYEPPPTAPTGGGTHTCPPCPAPELLGGPSVFLFPPKPKDTLMISRTPEVTCVVVDVSHEDPEVKFNWYVDGVEVHNAKTKPREEQYNSTYRVVSVLTVLHQDWLNGKEYKCKVSNKALPAPIEKTISKAKGQPREPQVYTLPPSRKEMTKNQVSLTCLVKGFYPSDIAVEWESNGQPENNYKTTPPVLKSDGSFFLYSKLTVDKSRWQQGNVFSCSVMHEALHNHYTQKSLSLSPGK
chain 2: GLKCVCLLCDSSNFTCQTEGACWASVMLTNGKEQVIKSCVSLPELNAQVFCHSSNNVTKTECCFTDFCNNITLHLPTASPNAPKLGPMETGGGTHTCPPCPAPELLGGPSVFLFPPKPKDTLMISRTPEVTCVVVDVSHEDPEVKFNWYVDGVEVHNAKTKPREEQYNSTYRVVSVLTVLHQDWLNGKEYKCKVSNKALPAPIEKTISKAKGQPREPQVYTLPPSREEMTKNQVSLTCLVKGFYPSDIAVEWESNGQPENNYDTTPPVLDSDGSFFLYSDLTVDKSRWQQGNVFSCSVMHEALHNHYTQKSLSLSPG
notes: also called ActRIIB-Fc:ALK7 heterodimer; ActRIIB-Fc:ALK7-Fc heterodimeric complex
On to B2, for which the Kd with activin A [3] was 0.043 nM; in the assay with BMP9 it was greater than 1.4 nM; with BMP10, 0.19 nM; with activin B [4], 0.017 nM; with activin C it was 6.9 nM; with activin AC it was 0.22 nM. The Kd with GDF3 was found to be 4.5 nM; in the assay with GDF8 it was 0.27 nM; with GDF11 it was 8 pM; with BMP5, 57 nM; in the assay with BMP6, 5.3 nM. Moreover, the koff is 0.0019 s⁻¹ with activin A [3]; 0.0028 s⁻¹ with BMP10; 0.0002 s⁻¹ with activin B [4]; 0.0024 s⁻¹ in the assay with activin C; 0.00057 s⁻¹ in the assay with activin AC; 0.01 s⁻¹ in the assay with GDF3. For the same molecule, the koff is 0.001 s⁻¹ with GDF8, 0.00075 s⁻¹ in the assay with GDF11, 0.0085 s⁻¹ with BMP5 and 0.0063 s⁻¹ with BMP6. Moreover, the kon amounted to 4.4e+07 M⁻¹ s⁻¹ with activin A [3]; 1.5e+07 M⁻¹ s⁻¹ with BMP10; 1.2e+07 M⁻¹ s⁻¹ with activin B [4]; 350000 M⁻¹ s⁻¹ with activin C; 2.6e+06 M⁻¹ s⁻¹ with activin AC; 2.3e+06 M⁻¹ s⁻¹ with GDF3. Also, the kon in the assay with GDF8 came out at 3.7e+06 M⁻¹ s⁻¹; with GDF11 it was 9.5e+07 M⁻¹ s⁻¹; with BMP5 it was 150000 M⁻¹ s⁻¹; with BMP6, 1.2e+06 M⁻¹ s⁻¹.
With B3, the binding result with ActRIIA-mFc is on record as “binds”.

B4: ALK7-Fc homodimer (Fc fusion, not shown: a dimerising Fc or GST)
chain: LSPGLKCVCLLCDSSNFTCQTEGACWASVMLTNGKEQVIKSCVSLPELNAQVFCHSSNNVTKTECCFTDFCNNITLHLPTASPNAPKLGPME
notes: the whole extracellular entry is named
As to B4, the binding result with activin A [3], with BMP9, with BMP10, with activin B [4], with activin C and in the assay with activin AC was “no binding” throughout. Also, the binding result with GDF3, with GDF8, with GDF11, with BMP5 and with BMP6 was “no binding” in each case.
